Measurements published in the supplement of paper PMC10126150.
± gives the standard deviation of the averaged measurements.

Test system: ATP
Assay: switch fluorescence ratio, 500 uM ATP over buffer (Cy3 cluster intensity, sum of 5 cycles each) (fold (ratio)); higher = stronger signal-on switching upon ATP binding; sequences stand for … in TCGTCGGCAGCGTCAGATGTGTATAAGAGACAGTTTTTTTTTTTTTTTTTTTTTTTTT…TC
Settings: aptamer strand: ATP DNA aptamer (quencher-CACCTGGGGGAGTATTGCGGAGGAAGG + anchor), 100 nM annealed; ATP concentration: 500 uM
In short: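 Cy3-labelled switching-strand clusters on a modified Illumina MiSeq flow-cell were annealed to 100 nM quencher-labelled ATP aptamer, imaged in selection buffer, then imaged after 15 min with 500 uM ATP at 22 °C. Five buffer/ATP cycles ran, with NaOH stripping and re-annealing between them. The fluorescence ratio is summed target-cycle over summed buffer-cycle Cy3 intensity per cluster, averaged per switch-domain sequence. Clusters outside 100-1000 RFU were excluded.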
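Also: ATP exposure 15 min at 22 °C before imaging.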

Sequence TTAAAATGTA has a switch fluorescence ratio of 0.992 ± 0.03.

For TTAAAATGTG, the switch fluorescence ratio was 1.04 ± 0.059.

In the case of TTAAACCCGC, the switch fluorescence ratio is reported as 1.08 ± 0.019.

TTAAAGCGGG was tested, and the switch fluorescence ratio was 1.01 ± 0.012.

Work on TTAAAGGGGC yielded a switch fluorescence ratio of 1.03 ± 0.06.

Sequence TTAAAGTAGC has a switch fluorescence ratio of 1.02 ± 0.017.

TTAAAGTCAT gave a switch fluorescence ratio of 1.007 ± 0.0072.

TTAAATAATT gave a switch fluorescence ratio of 0.992 ± 0.019.

Sequence TTAAATCGGC has a switch fluorescence ratio of 0.991 ± 0.043.

Sequence TTAAATGTTG has a switch fluorescence ratio of 1.01 ± 0.059.

With TTAAATTCGC the switch fluorescence ratio was 0.999 ± 0.0094.

Sequence TTAAATTGCG has a switch fluorescence ratio of 0.994 ± 0.027.

Sequence TTAACAGTGT has a switch fluorescence ratio of 0.964 ± 0.035.

For TTAACATGGG, the switch fluorescence ratio was 1 ± 0.033.

With TTAACGCAA the switch fluorescence ratio was 3.6 ± 2.

TTAACGCCTC was tested, and the switch fluorescence ratio was 1.0315 ± 0.001.

Work on TTAACGGGAG yielded a switch fluorescence ratio of 0.99 ± 0.019.

Work on TTAACGGGCT yielded a switch fluorescence ratio of 1.01 ± 0.048.

In the case of TTAACGGTGT, the switch fluorescence ratio is reported as 1.004 ± 0.005.

Sequence TTAACTGCAC has a switch fluorescence ratio of 1.44 ± 0.056.

For TTAAGAAAAA, the switch fluorescence ratio was 1.01 ± 0.016.

For TTAAGAAGAC, the switch fluorescence ratio was 1.04 ± 0.018.

TTAAGAATGG gave a switch fluorescence ratio of 1.01 ± 0.014.

With TTAAGAATTC the switch fluorescence ratio was 0.954 ± 0.021.

TTAAGACGTA was tested, and the switch fluorescence ratio was 1.03 ± 0.063.

Sequence TTAAGACGTC has a switch fluorescence ratio of 1.01 ± 0.0011.

With TTAAGAGGC the switch fluorescence ratio was 1.01 ± 0.2.

TTAAGAGGTC was tested, and the switch fluorescence ratio was 0.979 ± 0.018.

For TTAAGAGTCT, the switch fluorescence ratio was 1.02 ± 0.049.

With TTAAGAGTTA the switch fluorescence ratio was 1.006 ± 0.01.

Work on TTAAGATTCT yielded a switch fluorescence ratio of 0.993 ± 0.037.

With TTAAGATTTT the switch fluorescence ratio was 0.9935 ± 0.0053.

Sequence TTAAGCATTT has a switch fluorescence ratio of 1.021 ± 0.0047.

Work on TTAAGCTTAG yielded a switch fluorescence ratio of 1.01 ± 0.015.

With TTAAGCTTTT the switch fluorescence ratio was 0.989 ± 0.012.

For TTAAGGAAAA, the switch fluorescence ratio was 1.04 ± 0.071.

For TTAAGGACGG, the switch fluorescence ratio was 0.994 ± 0.065.

TTAAGGGGCA showed a switch fluorescence ratio of 1.02 ± 0.035.

TTAAGGGGG was tested, and the switch fluorescence ratio was 1.03 ± 0.012.

For TTAAGGGGGG, the switch fluorescence ratio was 1 ± 0.031.

In the case of TTAAGGTATT, the switch fluorescence ratio is reported as 1.07 ± 0.12.

Work on TTAAGGTGTA yielded a switch fluorescence ratio of 1.1 ± 0.064.

TTAAGTCATT was tested, and the switch fluorescence ratio was 0.986 ± 0.039.

TTAAGTCCA showed a switch fluorescence ratio of 0.995 ± 0.038.

TTAAGTGAGG gave a switch fluorescence ratio of 1.02 ± 0.016.

TTAAGTGATT gave a switch fluorescence ratio of 0.999 ± 0.025.

TTAAGTTGTG gave a switch fluorescence ratio of 0.9827 ± 0.0013.

TTAAGTTTGG was tested, and the switch fluorescence ratio was 1.01 ± 0.027.

With TTAATAGAGT the switch fluorescence ratio was 1 ± 0.018.

In the case of TTAATAGATG, the switch fluorescence ratio is reported as 1 ± 0.029.

TTAATAGATT showed a switch fluorescence ratio of 0.998 ± 0.021.

In the case of TTAATAGTC, the switch fluorescence ratio is reported as 1.05 ± 0.0041.

Work on TTAATCAGAT yielded a switch fluorescence ratio of 0.9533 ± 0.0093.

With TTAATCCCAG the switch fluorescence ratio was 1.02 ± 0.021.

Work on TTAATCCTTG yielded a switch fluorescence ratio of 1.02 ± 0.034.

For TTAATCGTGT, the switch fluorescence ratio was 0.995 ± 0.037.

TTAATCTGCC showed a switch fluorescence ratio of 1.15 ± 0.025.

TTAATGAAGG gave a switch fluorescence ratio of 1 ± 0.025.

TTAATGATTA showed a switch fluorescence ratio of 0.994 ± 0.034.

Sequence TTAATGGGAC has a switch fluorescence ratio of 1.012 ± 0.0033.

TTAATGTT showed a switch fluorescence ratio of 1.02 ± 0.018.

Sequence TTAATGTTCA has a switch fluorescence ratio of 1 ± 0.031.

With TTAATGTTGG the switch fluorescence ratio was 0.962 ± 0.046.

TTAATTAAAA was tested, and the switch fluorescence ratio was 0.962 ± 0.043.

For TTAATTAGTT, the switch fluorescence ratio was 1.01 ± 0.023.

TTAATTATGA was tested, and the switch fluorescence ratio was 0.991 ± 0.012.

For TTAATTATGG, the switch fluorescence ratio was 1 ± 0.034.

TTAATTCTAC was tested, and the switch fluorescence ratio was 1.039 ± 0.0063.

In the case of TTAATTGAAG, the switch fluorescence ratio is reported as 0.958 ± 0.04.

Work on TTAATTGAGG yielded a switch fluorescence ratio of 0.993 ± 0.044.

TTAATTGGGT was tested, and the switch fluorescence ratio was 1 ± 0.028.

With TTAATTTGTT the switch fluorescence ratio was 0.988 ± 0.042.

For TTAATTTTAG, the switch fluorescence ratio was 0.9764 ± 0.0094.

In the case of TTAATTTTGG, the switch fluorescence ratio is reported as 1.02 ± 0.012.

Work on TTAATTTTTC yielded a switch fluorescence ratio of 1.02 ± 0.03.

Sequence TTACAAGAAA has a switch fluorescence ratio of 1.03 ± 0.041.

TTACAAGGTT gave a switch fluorescence ratio of 1.02 ± 0.013.

In the case of TTACAAGTAT, the switch fluorescence ratio is reported as 1.03 ± 0.021.

With TTACAAGTGT the switch fluorescence ratio was 0.993 ± 0.016.

With TTACAAGTTA the switch fluorescence ratio was 1.05 ± 0.064.

Work on TTACAATTTC yielded a switch fluorescence ratio of 1.03 ± 0.056.

In the case of TTACACATCA, the switch fluorescence ratio is reported as 1.083 ± 0.0047.

With TTACAGGGGA the switch fluorescence ratio was 1.01 ± 0.044.

TTACAGGGTA showed a switch fluorescence ratio of 0.981 ± 0.025.

With TTACAGTTGG the switch fluorescence ratio was 1.03 ± 0.023.

For TTACATATGT, the switch fluorescence ratio was 1.02 ± 0.021.

In the case of TTACATGATG, the switch fluorescence ratio is reported as 1.01 ± 0.013.

Work on TTACATGCTA yielded a switch fluorescence ratio of 1 ± 0.032.

TTACATGTAA gave a switch fluorescence ratio of 0.996 ± 0.023.

In the case of TTACATTT, the switch fluorescence ratio is reported as 1.02 ± 0.017.

TTACATTTAT was tested, and the switch fluorescence ratio was 1.023 ± 0.0083.

TTACCATTGG was tested, and the switch fluorescence ratio was 1.04 ± 0.082.

TTACCCTTGG was tested, and the switch fluorescence ratio was 1.17 ± 0.05.

In the case of TTACCTGAAC, the switch fluorescence ratio is reported as 2.02 ± 0.31.

Sequence TTACGAAGTT has a switch fluorescence ratio of 1 ± 0.019.

TTACGCATTT gave a switch fluorescence ratio of 1.12 ± 0.08.

TTACGCCGAC was tested, and the switch fluorescence ratio was 1.14 ± 0.15.

Work on TTACGCTCAT yielded a switch fluorescence ratio of 2.79 ± 0.61.

TTACGGGCGG was tested, and the switch fluorescence ratio was 1.03 ± 0.078.

Work on TTACGGGGAC yielded a switch fluorescence ratio of 1.08 ± 0.089.

TTACGGGTGG gave a switch fluorescence ratio of 1.01 ± 0.044.

TTACGGTCCA gave a switch fluorescence ratio of 1.05 ± 0.017.

With TTACGGTGGT the switch fluorescence ratio was 1.03 ± 0.036.

TTACGGTTT showed a switch fluorescence ratio of 1 ± 0.025.

With TTACGTTGGG the switch fluorescence ratio was 0.997 ± 0.035.

Sequence TTACTAAGGT has a switch fluorescence ratio of 1.063 ± 0.01.

For TTACTACGGC, the switch fluorescence ratio was 1.09 ± 0.021.

TTACTAGGCG was tested, and the switch fluorescence ratio was 1.01 ± 0.053.

Sequence TTACTATATG has a switch fluorescence ratio of 1.03 ± 0.018.

Sequence TTACTATTGG has a switch fluorescence ratio of 0.978 ± 0.013.

TTACTCGCTG was tested, and the switch fluorescence ratio was 1.07 ± 0.027.

TTACTCTTCG gave a switch fluorescence ratio of 1.062 ± 0.0074.

TTACTGGACG showed a switch fluorescence ratio of 1.07 ± 0.058.

In the case of TTACTGGAG, the switch fluorescence ratio is reported as 1.02 ± 0.06.

Sequence TTACTGGATA has a switch fluorescence ratio of 0.987 ± 0.046.

TTACTGGGTT showed a switch fluorescence ratio of 1 ± 0.084.

Sequence TTACTGTAAT has a switch fluorescence ratio of 1.18 ± 0.037.

TTACTGTTAC showed a switch fluorescence ratio of 1.32 ± 0.083.

TTACTTACTT was tested, and the switch fluorescence ratio was 1.28 ± 0.081.

With TTACTTAGGT the switch fluorescence ratio was 1.03 ± 0.068.

In the case of TTAGAAAAGA, the switch fluorescence ratio is reported as 1 ± 0.033.

TTAGAACTCT gave a switch fluorescence ratio of 1.01 ± 0.014.

TTAGAAGACT showed a switch fluorescence ratio of 1.08 ± 0.08.

TTAGACATTT showed a switch fluorescence ratio of 1.01 ± 0.026.

Sequence TTAGAGGCTG has a switch fluorescence ratio of 0.912 ± 0.15.

Sequence TTAGAGGTTA has a switch fluorescence ratio of 0.98609 ± 0.00054.

Work on TTAGAGGTTT yielded a switch fluorescence ratio of 0.971 ± 0.038.

TTAGAGTCTG was tested, and the switch fluorescence ratio was 1.005 ± 0.01.

In the case of TTAGATACAT, the switch fluorescence ratio is reported as 1 ± 0.019.

With TTAGATAGGT the switch fluorescence ratio was 1.02 ± 0.062.

TTAGATATAT showed a switch fluorescence ratio of 0.996 ± 0.036.

TTAGATTGTG gave a switch fluorescence ratio of 0.978 ± 0.03.

In the case of TTAGCATAAA, the switch fluorescence ratio is reported as 1.04 ± 0.024.

For TTAGCCAGCT, the switch fluorescence ratio was 0.96986 ± 0.00044.

Sequence TTAGGAGGGG has a switch fluorescence ratio of 1.03 ± 0.11.

Sequence TTAGGATGTA has a switch fluorescence ratio of 1.005 ± 0.0095.

TTAGGATGTG showed a switch fluorescence ratio of 0.984 ± 0.022.

For TTAGGCGGGC, the switch fluorescence ratio was 1.02 ± 0.027.

Sequence TTAGGCGTAT has a switch fluorescence ratio of 0.989 ± 0.041.

With TTAGGCTGTG the switch fluorescence ratio was 0.986 ± 0.03.

For TTAGGGAACA, the switch fluorescence ratio was 1.16 ± 0.16.

TTAGGGATAC showed a switch fluorescence ratio of 1.88 ± 0.88.

TTAGGGCAGG was tested, and the switch fluorescence ratio was 1.06 ± 0.058.

TTAGGGCGAC gave a switch fluorescence ratio of 1 ± 0.044.

Sequence TTAGGGCTCG has a switch fluorescence ratio of 1.01 ± 0.057.

Sequence TTAGGGGCAG has a switch fluorescence ratio of 0.981 ± 0.034.

With TTAGGGGGGT the switch fluorescence ratio was 1.05 ± 0.15.

For TTAGGGTATT, the switch fluorescence ratio was 1.02 ± 0.028.

Sequence TTAGGGTCT has a switch fluorescence ratio of 1.01 ± 0.022.

Sequence TTAGGGTGGG has a switch fluorescence ratio of 1.01 ± 0.053.

Sequence TTAGGTAGTG has a switch fluorescence ratio of 0.9667 ± 0.0047.

For TTAGGTCGGT, the switch fluorescence ratio was 1.01 ± 0.0094.

With TTAGGTTAGA the switch fluorescence ratio was 0.993 ± 0.014.
